Reference: patent publication US10555963B2, “Klotho protein and related compounds for the treatment and diagnosis of cancer” (TEL HASHOMER MEDICAL RESEARCH INFRASTRUCTURE AND SERVICES …, priority 2007, dated 2020)

Key:
[1] = test system: Panc1 cells; assay: MTT proliferation assay, soluble klotho protein and 5-FU; details: 5-FU 500 μM alone; 48 hr
Description: 3000 cells/well were plated in 96-well plates, cultured in the appropriate culture media, and treated for 48 hrs as indicated.
Medium alone served as control. 48 hr after incubation, cells were cultured for 2 hr with 500 μg/ml MTT reagent, the medium was aspirated, and the cells were dissolved in dimethyl sulfoxide (DMSO). Absorbance of the formazan product was measured by an enzyme-linked immunosorbent assay reader to provide a measure of viability.

[2] = test system: MCF-7 cells; assay: MTT proliferation assay after klotho protein down-regulation by siRNA; type: cell-based, human; details: 48 h; compared to siRNAc; p<0.05
Description: (§1) Klotho protein directed stealth siRNA duplex oligoribonucleotides and control siRNAs were both designed and purchased from Invitrogen. Lipofectamine 2000 (Invitrogen), and was used to transfect the cells with 100 pmoles of siRNA.
The medium was aspirated, and the cells were dissolved by dimethyl sulfoxide (DMSO).
(§2) Three klotho protein-directed siRNAs were designed and tested for their ability to silence klotho protein expression in MCF-7 cells, compared to a control siRNA (siRNAc).

[3] = test system: AKT in MCF-7 cells; assay: AKT phosphorylation after IGF-1 stimulation in klotho-silenced MCF-7 cells; type: cell-based, human; details: compared to siRNAc transfected cells
Excerpt: as §1
The effect of silencing of klotho protein in MCF-7 cells, using siRNA3, was also studied.

[4] = test system: klotho protein mRNA; assay: Silencing of klotho protein expression by siRNA in MCF-7 cells (mRNA levels); type: cell-based, human; details: MCF-7 cells transfected with siRNA
Excerpt: as §1
For breast cell studies, total RNA was extracted using the RNA isolation kit (Sigma) and processed to cDNA with RevertAid (Fermentas, Vilnius, Lithuania). Primers were designed using Primer Express (Applied Biosystems, Foster City, Calif.) and synthesized by IDT (Coralville, Iowa). […].
as §2

[5] = test system: IGF-1 pathway in Panc1 cells; assay: IGF-1 pathway in Panc1 cells treated with soluble klotho protein (immunoblot); type: cell-based, human; details: klotho 10 min, then IGF-1 12.5 nM, 15 min
Description: For pancreatic cells, protein extraction and Western blotting was performed as described (Wolf et al., 2008).
Since klotho protein is shed and may act as a circulating hormone, the ability of soluble klotho protein to inhibit activation of the IGF-1 pathway in Panc1 cells was tested. V5-tagged soluble klotho protein was generated as described [Kurosu H. et al., 2005]. Panc1 cells were treated with klotho protein for 10 min and stimulated with IGF-1 (12.5 nM, 15 min), and expression and phosphorylation of the IGF-1R, AKT and ERK1/2 was determined.

[6] = test system: IGF-1R in MCF-7 cells; assay: IGF-1R phosphorylation in MCF-7 cells treated with soluble klotho protein; type: cell-based, human; details: klotho 15 min, then IGF-1 12.5 nM
Excerpt: Soluble klotho protein was generated essentially as described (Kurosu et al., 2005). In brief, insect cells, which stably express V5-tagged soluble klotho protein, were generated using the Drosophila Expression System (Invitrogen). A cDNA fragment encoding the entire extracellular domain of mouse Klotho protein (amino acid residues 31 to 982 of SEQ ID NO: 3) was inserted into a pMT/BiP/V5-His expression vector, allowing inducible expression from metallothionein promoter and secretion of the recombinant protein with V5 and 6×His tags at the C-terminus into conditioned medium. The expression vector was transfected into Drosophila Schneider cells by the calcium phosphate method together with pCoHYGRO selection vector. […]
As klotho protein may also be shed and act as a circulating hormone (Kuro-o et al., 1997; Matsumura et al., 1998), the ability of soluble klotho protein to inhibit activation of the IGF-1 pathway in MCF-7 cells was tested. V5-tagged soluble klotho protein was generated as described under “Materials and Methods”, its expression and purity were examined using Coomassie staining and its concentration was determined (data not shown). MCF-7 cells were treated with klotho protein for 15 min and, stimulated with IGF-1 (12.5 nM, 15 min), and expression and phosphorylation of the IGF-1R was determined.

[7] = test system: Panc1 cells; assay: In vivo Panc1 tumors in athymic mice treated with sol-hKL or sol-hKL1; details: i.p. five days a week for five weeks; for tumor growth (tumor volume and weight): sol-hKL 2.5 μg/kg, sol-hKL1 10 or 25 μg/kg, p<0.05
Description: The in vivo growth inhibitory activity of sol-hKL1, compared to sol-hKL, on pancreatic cancer cells was examined (FIG. 17C-G). Panc1 cells were injected into one flank of athymic mice and mice were treated with intraperitoneal injections of either control vehicle (N=12), sol-hKL (2.5 μg/kg, N=7), or sol-hKL1 (10 μg/kg, N=6; 25 μg/kg, N=7), five days a week for five weeks. Weight of mice (FIG. 17C) and tumor volume (FIG. 17D) in control and treated groups were monitored weekly and tumor weight was measured on day of sacrifice (FIG. 17E).

[8] = Blood counts and chemistry of treated mice; type: in vivo; details: for glucose levels: after fasting, MiaPaCa2 xenograft experiment; for blood counts or liver function tests: data not shown; for hypophosphatemia in treated mice: mouse, in vivo
Description: The effects of sol-hKL and sol-hKL1 on blood counts and chemistry were also studied. For these studies, blood was withdrawn from control, sol-hKL-treated (2.5 μg/kg) or sol-hKL1-treated (10 μg/kg) mice, at the same day as sacrificing and tumor harvesting, following five weeks of treatment.

[9] = test system: MiaPaCa2 cells; assay: In vivo MiaPaCa2 tumors in athymic mice treated with sol-hKL or sol-hKL1; details: sol-hKL 2.5 μg/kg, sol-hKL1 10 μg/kg; for tumors completely regressed (number) / tumors completely regressed (percent): after four weeks
Description: A similar experiment, with minor differences, was also performed using MiaPaCa2 cells (FIGS. 17H, 17I). Cells were injected into both flanks of athymic mice and mice were treated with either a control vehicle (N=8), sol-hKL (2.5 μg/kg, N=8) or sol-hKL1 (10 μg/kg, N=8).

[10] = test system: Panc1 cells; assay: MTT viability assay, sol-hKL or sol-hKL1; type: cell-based, human; details: 48 hrs
Description: The activity of hKL1 was also tested. Panc1 cells were treated with either sol-hKL or sol-hKL1 for 48 hrs and viability was assessed after 48 hours by MTT assay (FIG. 17B).

[11] = five weeks of treatment, sol-hKL 2.5 μg/kg, sol-hKL1 10 μg/kg

## O=c1[nH]cc(F)c(=O)[nH]1 [5-FLU, 5-Fluorouracil]
[1]
  reduction in viability: 50%

## CACCAAGAGAGAUGAUGCCAAAUAU [siRNA3]
[2]
  increase of proliferation of MCF-7 cells (MTT assay): 2.5 fold
[3]
  AKT phosphorylation following IGF-1 stimulation: increased
[4]
  reduction of klotho protein expression (mRNA levels): 88%

B1: soluble klotho protein: V5-tagged entire extracellular domain of mouse Klotho protein (residues 31 to 982 of SEQ ID NO: 3) from Drosophila cells (protein)
chain: RCLSAEPGQGAQTWARFARAPAPEAAGLLHDTFPDGFLWAVGSAAYQTEGGWRQHGKGASIWDTFTHHSGAAPSDSPIVVAPSGAPSPPLSSTGDVASDSYNNVYRDTEGLRELGVTHYRFSISWARVLPNGTAGTPNREGLRYYRRLLERLRELGVQPVVTLYHWDLPQRLQDTYGGWANRALADHFRDYAELCFRHFGGQVKYWITIDNPYVVAWHGYATGRLAPGVRGSSRLGYLVAHNLLLAHAKVWHLYNTSFRPTQGGRVSIALSSHWINPRRMTDYNIRECQKSLDFVLGWFAKPIFIDGDYPESMKNNLSSLLPDFTESEKRLIRGTADFFALSFGPTLSFQLLDPNMKFRQLESPNLRQLLSWIDLEYNHPPIFIVENGWFVSGTTKRDDAKYMYYLKKFIMETLKAIRLDGVDVIGYTAWSLMDGFEWHRGYSIRRGLFYVDFLSQDKELLPKSSALFYQKLIEDNGFPPLPENQPLEGTFPCDFAWGVVDNYVQVDTTLSQFTDPNVYLWDVHHSKRLIKVDGVVAKKRKPYCVDFSAIRPQITLLREMRVTHFRFSLDWALILPLGNQTQVNHTVLHFYRCMISELVHANITPVVALWQPAAPHQGLPHALAKHGAWENPHTALAFADYANLCFKELGHWVNLWITMNEPNTRNMTYRAGHHLLRAHALAWHLYDDKFRAAQKGKISIALQADWIEPACPFSQNDKEVAERVLEFDIGWLAEPIFGSGDYPRVMRDWLNQKNNFLLPYFTEDEKKLVRGSFDFLAVSHYTTILVDWEKEDPMKYNDYLEVQEMTDITWLNSPSQVAVVPWGLRKVLNWLRFKYGDLPMYVTANGIDDDPHAEQDSLRIYYIKNYVNEALKAYVLDDINLCGYFAYSLSDRSAPKSGFYRYAANQFEPKPSMKHYRRIIDSNGFLGSGTLGRFCPEEYTVCTECGFFQTRK
modifications: V5 tag
[5]
  phosphorylation of IGF-1R, AKT and ERK1/2: inhibited phosphorylation
[6]
  phosphorylation of the IGF-1 receptor: inhibited

B2: sol-hKL: Soluble human Klotho protein (hKL) obtained from R&D Systems (protein, UniProt Q9UEF7 34-981, looked up)
extracellular domain: EPGDGAQTWARFSRPPAPEAAGLFQGTFPDGFLWAVGSAAYQTEGGWQQHGKGASIWDTFTHHPLAPPGDSRNASLPLGAPSPLQPATGDVASDSYNNVFRDTEALRELGVTHYRFSISWARVLPNGSAGVPNREGLRYYRRLLERLRELGVQPVVTLYHWDLPQRLQDAYGGWANRALADHFRDYAELCFRHFGGQVKYWITIDNPYVVAWHGYATGRLAPGIRGSPRLGYLVAHNLLLAHAKVWHLYNTSFRPTQGGQVSIALSSHWINPRRMTDHSIKECQKSLDFVLGWFAKPVFIDGDYPESMKNNLSSILPDFTESEKKFIKGTADFFALCFGPTLSFQLLDPHMKFRQLESPNLRQLLSWIDLEFNHPQIFIVENGWFVSGTTKRDDAKYMYYLKKFIMETLKAIKLDGVDVIGYTAWSLMDGFEWHRGYSIRRGLFYVDFLSQDKMLLPKSSALFYQKLIEKNGFPPLPENQPLEGTFPCDFAWGVVDNYIQVDTTLSQFTDLNVYLWDVHHSKRLIKVDGVVTKKRKSYCVDFAAIQPQIALLQEMHVTHFRFSLDWALILPLGNQSQVNHTILQYYRCMASELVRVNITPVVALWQPMAPNQGLPRLLARQGAWENPYTALAFAEYARLCFQELGHHVKLWITMNEPYTRNMTYSAGHNLLKAHALAWHVYNEKFRHAQNGKISIALQADWIEPACPFSQKDKEVAERVLEFDIGWLAEPIFGSGDYPWVMRDWLNQRNNFLLPYFTEDEKKLIQGTFDFLALSHYTTILVDSEKEDPIKYNDYLEVQEMTDITWLNSPSQVAVVPWGLRKVLNWLKFKYGDLPMYIISNGIDDGLHAEDDQLRVYYMQNYINEALKAHILDGINLCGYFAYSFNDRTAPRFGLYRYAADQFEPKASMKHYRKIIDSNGFPGPETLERFCPEEFTVCTECSFFHTRKS
modifications: extracellular domain
notes: Soluble human Klotho protein (hKL) obtained from R&D Systems
[7]
  changes in weight or general health of mice: No changes
  tumor growth (tumor volume and weight): significantly inhibited tumor growth
[8]
  glucose levels: mildly increased
  hypophosphatemia in treated mice: observed
[8]; [11]
  blood urea, cholesterol and phosphate levels: altered
  blood counts or liver function tests: did not affect
[9]
  tumors completely regressed (number): two
  tumors completely regressed (percent): 12%

B3: sol-hKL1: Human KL1 (residues 34-549 of SEQ ID: 2) obtained from PeproTech Inc. (protein)
chain: EPGDGAQTWARFSRPPAPEAAGLFQGTFPDGFLWAVGSAAYQTEGGWQQHGKGASIWDTFTHHPLAPPGDSRNASLPLGAPSPLQPATGDVASDSYNNVFRDTEALRELGVTHYRFSISWARVLPNGSAGVPNREGLRYYRRLLERLRELGVQPVVTLYHWDLPQRLQDAYGGWANRALADHFRDYAELCFRHFGGQVKYWITIDNPYVVAWHGYATGRLAPGIRGSPRLGYLVAHNLLLAHAKVWHLYNTSFRPTQGGQVSIALSSHWINPRRMTDHSIKECQKSLDFVLGWFAKPVFIDGDYPESMKNNLSSILPDFTESEKKFIKGTADFFALCFGPTLSFQLLDPHMKFRQLESPNLRQLLSWIDLEFNHPQIFIVENGWFVSGTTKRDDAKYMYYLKKFIMETLKAIKLDGVDVIGYTAWSLMDGFEWHRGYSIRRGLFYVDFLSQDKMLLPKSSALFYQKLIEKNGFPPLPENQPLEGTFPCDFAWGVVDNYIQVSQLTKPISSLTKPYH
[10]
  concentration for 50% viability reduction relative to sol-hKL: 100 times
[10]; p<0.005 vs control
  reduction of viability of Panc1 cells: 50%
[7]
  changes in weight or general health of mice: No changes
  tumor growth (tumor volume and weight): significantly inhibited tumor growth
[8]
  glucose levels: did not have any significant effect
  hypophosphatemia in treated mice: not
[8]; [11]
  blood counts or liver function tests: did not affect
[9]
  tumors completely regressed (number): four
  tumors completely regressed (percent): 25%
  tumor growth inhibition compared with sol-hKL: more effectively than sol-hKL
